This passage reports percentage of B7-1 binding activity (of CTLA4Ig) results from article PMC2191786.

The target in this assay is B7-1 on stably transfected B7-1+ Chinese hamster ovary (CHO) cells (human) (UniProt P33681). Briefly: ELISA. A general note: An ELISA detects its analyte on a solid surface through an enzyme-linked reagent.
Sequence of UniProt P33681 (P33681 35-288): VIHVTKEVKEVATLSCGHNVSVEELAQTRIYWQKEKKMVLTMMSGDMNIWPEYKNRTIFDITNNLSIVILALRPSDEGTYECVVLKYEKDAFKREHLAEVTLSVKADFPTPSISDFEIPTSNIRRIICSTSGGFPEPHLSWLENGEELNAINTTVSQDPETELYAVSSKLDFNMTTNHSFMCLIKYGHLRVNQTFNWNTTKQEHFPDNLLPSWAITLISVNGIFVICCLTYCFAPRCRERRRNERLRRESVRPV

Regarding CTLA4Ig P102A (Fc fusion), the percentage of B7-1 binding activity (of CTLA4Ig) was found to be 3%.
In the case of CTLA4Ig Y100A (Fc fusion), the percentage of B7-1 binding activity (of CTLA4Ig) stood at 3%.
Regarding CTLA4Ig Y104A (Fc fusion), the percentage of B7-1 binding activity (of CTLA4Ig) is less than 0.1%.
Turning to CTLA4Ig P103A (Fc fusion), the percentage of B7-1 binding activity (of CTLA4Ig) is less than 0.1%.
The substance CTLA4Ig M99A (Fc fusion) had a percentage of B7-1 binding activity (of CTLA4Ig) of less than 0.1%.
